{"source": "patent US20250340636A1", "about": "(Memorial Sloan Kettering, published 2025)", "key": {"[1]": {"molecular_target": "T1, human L1CAM on cells (human, UniProt P32004 20-1257)", "T1 construct": "Overexpressed on stably transfected HEK293T cells or endogenous on MCF-7 and MDA-MB-231 cells; also called HEK293T-hL1CAM", "T1 sequence (P32004 20-1257)": "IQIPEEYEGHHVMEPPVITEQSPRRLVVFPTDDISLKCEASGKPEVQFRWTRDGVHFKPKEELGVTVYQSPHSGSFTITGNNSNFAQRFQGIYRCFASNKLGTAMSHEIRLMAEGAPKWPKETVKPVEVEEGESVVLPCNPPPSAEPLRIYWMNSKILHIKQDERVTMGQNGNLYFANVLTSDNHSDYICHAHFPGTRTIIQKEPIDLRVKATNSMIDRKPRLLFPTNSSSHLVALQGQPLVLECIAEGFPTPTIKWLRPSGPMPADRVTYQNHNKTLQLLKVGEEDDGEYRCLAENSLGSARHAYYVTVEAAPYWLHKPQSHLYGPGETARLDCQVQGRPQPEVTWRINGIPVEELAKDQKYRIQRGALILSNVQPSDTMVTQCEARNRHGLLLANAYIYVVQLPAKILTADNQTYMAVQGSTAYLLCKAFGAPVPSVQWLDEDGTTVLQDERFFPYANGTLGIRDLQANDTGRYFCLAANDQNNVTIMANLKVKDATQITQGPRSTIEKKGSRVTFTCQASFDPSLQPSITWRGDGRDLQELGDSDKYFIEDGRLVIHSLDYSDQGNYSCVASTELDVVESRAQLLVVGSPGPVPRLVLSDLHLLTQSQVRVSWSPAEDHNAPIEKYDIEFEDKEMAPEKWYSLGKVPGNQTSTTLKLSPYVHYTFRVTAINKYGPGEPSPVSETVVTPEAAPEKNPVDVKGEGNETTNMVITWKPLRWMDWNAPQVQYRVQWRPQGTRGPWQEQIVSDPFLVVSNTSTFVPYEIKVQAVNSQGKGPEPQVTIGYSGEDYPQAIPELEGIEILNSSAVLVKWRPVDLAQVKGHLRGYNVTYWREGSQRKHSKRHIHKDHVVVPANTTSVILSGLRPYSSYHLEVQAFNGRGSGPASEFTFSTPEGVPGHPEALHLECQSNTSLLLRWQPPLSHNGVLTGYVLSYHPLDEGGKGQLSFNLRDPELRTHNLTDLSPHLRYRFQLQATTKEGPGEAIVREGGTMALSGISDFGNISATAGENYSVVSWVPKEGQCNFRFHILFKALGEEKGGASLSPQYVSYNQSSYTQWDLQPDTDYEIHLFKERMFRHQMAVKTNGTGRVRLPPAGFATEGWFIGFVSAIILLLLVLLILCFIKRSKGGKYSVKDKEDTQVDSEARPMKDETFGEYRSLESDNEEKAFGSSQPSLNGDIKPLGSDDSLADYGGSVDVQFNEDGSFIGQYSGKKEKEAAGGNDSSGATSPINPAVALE", "test": "summary table; binding to cells with endogenous L1CAM (MCF-7)", "procedure": "(§1) Binding to L1CAM on Cells. […] Cells were then incubated with an AlexaFluor 647 goat anti-human Fc secondary antibody. After washing, the stained cells were analyzed by flow cytometry.\n(§2) The binding curves for each antibody and cell line normalized to secondary antibody only staining (MFI ratio) are shown in FIGS. 14A-14C. EC50 values were determined by non-linear regression (Table 70). […] It is possible that differences in the conformation and oligomerization of L1CAM, depending on the surface expression level, contributed to the binding pattern. […] An avidity effect due to high levels of L1CAM surface expression may have contributed to the strong binding observed in this experiment."}, "[2]": {"molecular_target": "T1, human L1CAM on cells", "test": "summary table; binding to cells with endogenous L1CAM (MDA-MB-231)", "procedure": "as §1, §2"}, "[3]": {"molecular_target": "T1, human L1CAM on cells", "test": "flow cytometry, MDA-MB-231 cells, AlexaFluor 647 anti-human Fc secondary", "procedure": "as §1, §2"}, "[4]": {"molecular_target": "T2, soluble cynomolgus monkey L1CAM, His-tagged, monomeric (cynomolgus monkey, UniProt A0A2K5URB5 20-1120)", "T2 construct": "also called cyL1CAM protein; cynomolgus L1CAM-His", "test": "BLI (Octet Red96e), His-tagged cynomolgus L1CAM on Ni-NTA biosensors, mAb as analyte, 1:1 fit", "procedure": "(§3) Cross-reactivity to Cynomolgus Monkey L1CAM. Affinity to cynomolgus L1CAM was measured by BLI using an Octet Red96e instrument. […] The data was prepared by reference well subtraction, and response curves were globally fit to a 1:1 Langmuir binding model."}, "[5]": {"molecular_target": "T3, extracellular domain of human L1CAM (isoform 1) fused to a poly-histidine tag via its carboxy terminus (human, UniProt P32004 20-1120)", "T3 construct": "Bought (Creative Biomart); also called L1CAM-His; huL1CAM protein", "T3 sequence (P32004 20-1120)": "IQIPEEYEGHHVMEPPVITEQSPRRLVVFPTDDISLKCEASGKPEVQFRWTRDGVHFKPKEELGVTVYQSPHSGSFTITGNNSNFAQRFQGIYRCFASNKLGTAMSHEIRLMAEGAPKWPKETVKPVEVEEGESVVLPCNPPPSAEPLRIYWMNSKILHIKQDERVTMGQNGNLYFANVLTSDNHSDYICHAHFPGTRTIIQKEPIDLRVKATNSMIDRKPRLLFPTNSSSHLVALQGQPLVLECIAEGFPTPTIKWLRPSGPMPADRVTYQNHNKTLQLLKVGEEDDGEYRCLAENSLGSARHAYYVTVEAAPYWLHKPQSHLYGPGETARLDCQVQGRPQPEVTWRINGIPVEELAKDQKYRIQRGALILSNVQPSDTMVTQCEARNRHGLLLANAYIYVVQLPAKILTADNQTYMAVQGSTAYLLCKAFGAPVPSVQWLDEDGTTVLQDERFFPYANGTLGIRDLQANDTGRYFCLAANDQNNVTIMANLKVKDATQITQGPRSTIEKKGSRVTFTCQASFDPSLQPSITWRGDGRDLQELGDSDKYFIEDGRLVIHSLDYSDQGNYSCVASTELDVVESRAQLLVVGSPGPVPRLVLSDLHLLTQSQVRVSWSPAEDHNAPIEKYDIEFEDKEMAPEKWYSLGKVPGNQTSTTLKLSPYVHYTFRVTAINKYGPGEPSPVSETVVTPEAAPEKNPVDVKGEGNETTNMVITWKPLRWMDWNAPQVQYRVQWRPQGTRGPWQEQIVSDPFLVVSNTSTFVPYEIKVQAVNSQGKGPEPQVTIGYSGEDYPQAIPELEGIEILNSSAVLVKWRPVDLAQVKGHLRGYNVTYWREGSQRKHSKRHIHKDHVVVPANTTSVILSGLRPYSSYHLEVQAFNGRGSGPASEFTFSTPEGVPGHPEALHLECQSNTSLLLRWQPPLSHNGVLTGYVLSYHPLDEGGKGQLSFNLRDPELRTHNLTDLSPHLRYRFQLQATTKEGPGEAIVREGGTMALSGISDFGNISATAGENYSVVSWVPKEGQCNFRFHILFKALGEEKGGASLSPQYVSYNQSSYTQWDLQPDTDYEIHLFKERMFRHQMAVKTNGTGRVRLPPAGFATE", "test": "BLI, His-tagged human L1CAM", "procedure": "(§4) Binding to L1CAM in Solution. Affinity to human L1CAM was measured by BLI using an Octet Red96e instrument. […] The data was prepared by reference well subtraction, and response curves were globally fit to a 1:1 Langmuir binding model."}, "[6]": {"molecular_target": "T3, extracellular domain of human L1CAM …", "test": "BLI (Octet Red96e), His-tagged human L1CAM on Ni-NTA biosensors, mAb as analyte, 1:1 fit", "procedure": "as §4"}, "[7]": {"molecular_target": "T4, soluble mouse L1CAM (monomer), His-tagged (mouse, UniProt P11627 20-1123, limits assumed)", "T4 construct": "read as mouse", "T4 sequence (P11627 20-1123 limits assumed)": "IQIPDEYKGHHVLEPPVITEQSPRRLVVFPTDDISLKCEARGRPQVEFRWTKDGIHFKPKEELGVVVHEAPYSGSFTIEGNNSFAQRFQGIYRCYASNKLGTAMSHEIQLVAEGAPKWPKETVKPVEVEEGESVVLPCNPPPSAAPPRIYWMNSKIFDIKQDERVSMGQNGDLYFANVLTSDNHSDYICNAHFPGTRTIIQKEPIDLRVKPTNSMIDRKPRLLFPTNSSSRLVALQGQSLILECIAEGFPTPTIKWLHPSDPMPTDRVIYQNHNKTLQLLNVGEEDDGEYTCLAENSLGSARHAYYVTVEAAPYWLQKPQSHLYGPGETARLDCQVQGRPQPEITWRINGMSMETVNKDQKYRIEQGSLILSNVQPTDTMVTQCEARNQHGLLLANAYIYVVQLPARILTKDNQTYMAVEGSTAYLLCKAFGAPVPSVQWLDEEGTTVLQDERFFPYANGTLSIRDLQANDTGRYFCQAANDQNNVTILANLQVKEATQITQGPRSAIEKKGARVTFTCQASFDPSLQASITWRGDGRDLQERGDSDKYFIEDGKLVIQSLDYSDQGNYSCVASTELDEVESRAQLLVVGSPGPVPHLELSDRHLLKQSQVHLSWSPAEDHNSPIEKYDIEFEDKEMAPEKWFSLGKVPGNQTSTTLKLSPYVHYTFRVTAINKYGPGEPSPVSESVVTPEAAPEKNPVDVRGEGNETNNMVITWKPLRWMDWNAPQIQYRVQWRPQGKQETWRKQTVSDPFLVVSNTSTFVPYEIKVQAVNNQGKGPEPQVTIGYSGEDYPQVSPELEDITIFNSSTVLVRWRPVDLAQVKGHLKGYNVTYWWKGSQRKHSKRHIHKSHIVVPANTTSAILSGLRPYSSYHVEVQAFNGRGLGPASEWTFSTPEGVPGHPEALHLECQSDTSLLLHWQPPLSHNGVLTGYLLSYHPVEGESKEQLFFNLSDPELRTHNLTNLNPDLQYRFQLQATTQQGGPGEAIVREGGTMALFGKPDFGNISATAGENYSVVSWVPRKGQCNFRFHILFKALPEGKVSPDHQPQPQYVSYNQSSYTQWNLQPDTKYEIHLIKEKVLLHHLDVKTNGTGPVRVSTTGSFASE", "test": "BLI (Octet Red96e), His-tagged L1CAM on Ni-NTA biosensors, mAb as analyte", "procedure": "Cross-reactivity to Mouse L1CAM. Affinity to mouse L1CAM was measured by BLI using an Octet Red96e instrument. […] The data was prepared by reference well subtraction, and response curves were globally fit to a 1:1 Langmuir binding model."}, "[8]": {"molecular_target": "T2, soluble cynomolgus monkey L1CAM, …", "test": "summary table; soluble cynomolgus monkey L1CAM (monomer)", "procedure": "as §3"}, "[9]": {"molecular_target": "T5, human CHL-1 (residues 25-1096 with a C-terminal 10xHis tag) (human, UniProt O00533 25-1096)", "T5 construct": "range 25-1096; also called L1CAM-2; L1CAM2", "T5 sequence": "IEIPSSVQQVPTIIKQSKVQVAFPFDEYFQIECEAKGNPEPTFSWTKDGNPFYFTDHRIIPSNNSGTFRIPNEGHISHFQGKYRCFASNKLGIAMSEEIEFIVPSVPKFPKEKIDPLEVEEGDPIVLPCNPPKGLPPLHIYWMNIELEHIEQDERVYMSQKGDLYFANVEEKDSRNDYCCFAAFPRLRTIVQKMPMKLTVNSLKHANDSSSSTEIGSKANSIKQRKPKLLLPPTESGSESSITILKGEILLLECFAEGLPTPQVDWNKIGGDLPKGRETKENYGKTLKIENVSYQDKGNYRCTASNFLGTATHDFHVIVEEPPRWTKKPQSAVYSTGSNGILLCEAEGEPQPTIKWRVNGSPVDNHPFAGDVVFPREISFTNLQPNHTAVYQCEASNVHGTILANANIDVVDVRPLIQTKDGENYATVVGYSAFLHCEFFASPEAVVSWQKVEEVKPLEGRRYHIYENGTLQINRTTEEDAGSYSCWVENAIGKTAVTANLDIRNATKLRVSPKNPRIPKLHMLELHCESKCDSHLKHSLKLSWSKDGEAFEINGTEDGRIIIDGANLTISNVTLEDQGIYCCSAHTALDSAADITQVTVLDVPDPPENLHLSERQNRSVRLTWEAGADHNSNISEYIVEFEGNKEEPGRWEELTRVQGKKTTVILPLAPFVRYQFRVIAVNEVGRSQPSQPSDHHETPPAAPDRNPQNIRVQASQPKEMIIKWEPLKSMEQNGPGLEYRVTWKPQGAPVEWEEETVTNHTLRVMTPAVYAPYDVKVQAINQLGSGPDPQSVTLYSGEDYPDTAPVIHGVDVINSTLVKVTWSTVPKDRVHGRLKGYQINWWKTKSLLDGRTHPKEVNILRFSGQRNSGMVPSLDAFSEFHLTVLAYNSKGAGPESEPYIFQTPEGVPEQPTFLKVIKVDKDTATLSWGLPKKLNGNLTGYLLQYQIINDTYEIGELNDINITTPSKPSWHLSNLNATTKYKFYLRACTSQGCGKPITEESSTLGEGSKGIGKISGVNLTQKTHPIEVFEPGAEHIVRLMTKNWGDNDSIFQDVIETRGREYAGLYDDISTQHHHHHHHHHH", "test": "ELISA, plates coated with human CHL-1", "excerpt": "Selectivity. […] These proteins are other members of the L1 family of cell adhesion proteins and have between 49% and 55% sequence similarity with L1CAM in the extracellular portion. […] Positive control antibodies were included for each homolog. […] Epitope. The extracellular portion of L1CAM contains six immunoglobulin-like (Ig) domains and five fibronectin type III (FN) domains. To narrow down the binding region of the development candidate mAbs, truncated versions of human L1CAM protein (Ig domain, residues 21-605; FN domain, residues 606-1116; each with a C-terminal 6×His tag) were recombinantly produced, followed by a BLI experiment to test binding at 50 and 100 nM. […] 6×His tag is set forth in SEQ ID NO: 316."}, "[10]": {"molecular_target": "T6, mouse L1CAM on transiently transfected HEK293FT cells (mouse, UniProt P11627 20-1260)", "T6 construct": "whole, on cells; also called mouse L1CAM on cells", "T6 sequence (P11627 20-1260)": "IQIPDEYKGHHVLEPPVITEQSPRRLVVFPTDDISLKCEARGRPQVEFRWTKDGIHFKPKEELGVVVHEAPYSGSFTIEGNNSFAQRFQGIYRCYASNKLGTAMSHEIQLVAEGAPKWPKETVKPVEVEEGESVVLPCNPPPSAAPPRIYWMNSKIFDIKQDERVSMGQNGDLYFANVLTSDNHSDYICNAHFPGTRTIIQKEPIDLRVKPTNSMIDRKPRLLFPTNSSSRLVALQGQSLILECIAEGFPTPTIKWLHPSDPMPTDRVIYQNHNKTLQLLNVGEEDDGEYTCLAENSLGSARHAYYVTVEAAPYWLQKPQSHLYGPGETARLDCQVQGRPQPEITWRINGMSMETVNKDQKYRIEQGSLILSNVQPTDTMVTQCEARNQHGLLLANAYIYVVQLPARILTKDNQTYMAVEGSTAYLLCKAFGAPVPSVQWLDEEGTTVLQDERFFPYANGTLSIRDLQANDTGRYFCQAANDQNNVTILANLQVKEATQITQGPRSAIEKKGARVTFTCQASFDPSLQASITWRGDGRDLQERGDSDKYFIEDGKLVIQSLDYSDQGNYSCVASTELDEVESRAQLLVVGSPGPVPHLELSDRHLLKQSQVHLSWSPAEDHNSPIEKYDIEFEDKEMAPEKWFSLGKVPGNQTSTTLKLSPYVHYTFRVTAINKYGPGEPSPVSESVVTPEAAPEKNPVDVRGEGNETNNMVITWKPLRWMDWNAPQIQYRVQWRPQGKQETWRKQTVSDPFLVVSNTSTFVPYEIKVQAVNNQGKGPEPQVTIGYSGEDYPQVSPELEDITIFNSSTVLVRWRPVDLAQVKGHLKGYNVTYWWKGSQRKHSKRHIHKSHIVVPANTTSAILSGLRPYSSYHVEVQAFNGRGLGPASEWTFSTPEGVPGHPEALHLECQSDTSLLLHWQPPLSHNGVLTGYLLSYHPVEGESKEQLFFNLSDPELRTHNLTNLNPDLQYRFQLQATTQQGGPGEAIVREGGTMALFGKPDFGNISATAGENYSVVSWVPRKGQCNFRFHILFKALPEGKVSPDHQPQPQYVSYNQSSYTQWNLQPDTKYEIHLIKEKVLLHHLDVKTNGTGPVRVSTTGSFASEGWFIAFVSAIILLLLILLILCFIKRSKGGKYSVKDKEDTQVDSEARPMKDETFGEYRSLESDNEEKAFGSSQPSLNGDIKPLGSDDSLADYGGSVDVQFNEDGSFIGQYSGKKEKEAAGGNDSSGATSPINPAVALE", "test": "flow cytometry, cells transfected with mouse L1CAM"}, "[11]": {"molecular_target": "T1, human L1CAM on cells", "test": "summary table; binding to cells overexpressing human L1CAM (HEK293T)", "procedure": "as §1, §2"}, "[12]": {"molecular_target": "T3, extracellular domain of human L1CAM …", "test": "summary table; binding to soluble human L1CAM (monomer)", "procedure": "as §4"}, "[13]": {"molecular_target": "T1, human L1CAM on cells", "test": "flow cytometry, HEK293T-hL1CAM cells, AlexaFluor 647 anti-human Fc secondary", "procedure": "as §1, §2"}, "[14]": {"molecular_target": "T2, soluble cynomolgus monkey L1CAM, …", "test": "BLI, cynomolgus against human L1CAM-His", "procedure": "as §3"}, "[15]": {"molecular_target": "T1, human L1CAM on cells", "test": "flow cytometry, MCF-7 cells, AlexaFluor 647 anti-human Fc secondary", "procedure": "as §1, §2"}}, "data": [{"binder": "TDI-Y-004 (antibody, human IgG1, kappa, V domains shown, Human IgG1, kappa; also called humanized 143G03 (N61Q) mAb; hz143G03 (N61Q)) VH: QVQLVQSGAEVKKPGSSVKVSCKASGYTFTNYYIHWVRQAPGQGLEWMGKIGPGSGSPYYQGMFKDRVTITADESTSTAYMELSSLRSEDTAVYYCARWLLPFDYWGQGTLVTVSS VL: EIVLTQSPGTLSLSPGERATLSCRASSSVNYMHWYQQKPGQAPRLLIYATSILASGIPDRFSGSGSGTDYTLTISRLEPEDFAVYYCQQFSSDPLTFGGGTKVEIKR", "values": [{"measurement": "EC50", "setting": "[1]", "result": 1.3, "unit": "nM"}, {"measurement": "EC50", "setting": "[2]", "result": 2.5, "unit": "nM"}, {"measurement": "EC50", "setting": "[3]", "result": 2.5, "unit": "nM"}, {"measurement": "Kd", "setting": "[4]", "result": 0.3, "unit": "nM"}, {"measurement": "koff", "setting": "[4]", "result": "4.7e-05", "unit": "s⁻¹"}, {"measurement": "kon", "setting": "[4]", "result": 160000, "unit": "M⁻¹ s⁻¹"}, {"measurement": "fold difference in KD against TDI-Y-005", "setting": "[5]", "result": "~10", "unit": "fold"}, {"measurement": "Kd", "setting": "[6]", "result": 0.35, "unit": "nM"}, {"measurement": "koff", "setting": "[6]", "result": "9.5e-05", "unit": "s⁻¹"}, {"measurement": "kon", "setting": "[6]", "result": 270000, "unit": "M⁻¹ s⁻¹"}, {"measurement": "binding result", "setting": "[7]", "result": "no binding (tested: dilution series starting at 50 nM)"}, {"measurement": "Kd", "setting": "[8]", "result": 0.3, "unit": "nM"}, {"measurement": "koff", "setting": "[8]", "result": "4.7e-05", "unit": "s⁻¹"}, {"measurement": "kon", "setting": "[8]", "result": 160000, "unit": "M⁻¹ s⁻¹"}, {"measurement": "binding result", "setting": "[9]", "result": "no binding (tested: 1 µM)"}, {"measurement": "binding result", "setting": "[10]", "result": "no binding"}, {"measurement": "EC50", "setting": "[11]", "result": 2.2, "unit": "nM"}, {"measurement": "Kd", "setting": "[12]", "result": 0.35, "unit": "nM"}, {"measurement": "koff", "setting": "[12]", "result": "9.5e-05", "unit": "s⁻¹"}, {"measurement": "kon", "setting": "[12]", "result": 270000, "unit": "M⁻¹ s⁻¹"}, {"measurement": "EC50", "setting": "[13]", "result": 2.2, "unit": "nM"}, {"measurement": "fold difference of KD against human L1CAM", "setting": "[14]", "result": "≤ 1.2", "unit": "fold"}, {"measurement": "EC50", "setting": "[15]", "result": 1.3, "unit": "nM"}]}]}
